T1: U-STAT1 (purified full-length unphosphorylated STAT1) (UniProt P42224 1-750)
T1 construct: also called Full-length STAT1
T1 sequence (looked up): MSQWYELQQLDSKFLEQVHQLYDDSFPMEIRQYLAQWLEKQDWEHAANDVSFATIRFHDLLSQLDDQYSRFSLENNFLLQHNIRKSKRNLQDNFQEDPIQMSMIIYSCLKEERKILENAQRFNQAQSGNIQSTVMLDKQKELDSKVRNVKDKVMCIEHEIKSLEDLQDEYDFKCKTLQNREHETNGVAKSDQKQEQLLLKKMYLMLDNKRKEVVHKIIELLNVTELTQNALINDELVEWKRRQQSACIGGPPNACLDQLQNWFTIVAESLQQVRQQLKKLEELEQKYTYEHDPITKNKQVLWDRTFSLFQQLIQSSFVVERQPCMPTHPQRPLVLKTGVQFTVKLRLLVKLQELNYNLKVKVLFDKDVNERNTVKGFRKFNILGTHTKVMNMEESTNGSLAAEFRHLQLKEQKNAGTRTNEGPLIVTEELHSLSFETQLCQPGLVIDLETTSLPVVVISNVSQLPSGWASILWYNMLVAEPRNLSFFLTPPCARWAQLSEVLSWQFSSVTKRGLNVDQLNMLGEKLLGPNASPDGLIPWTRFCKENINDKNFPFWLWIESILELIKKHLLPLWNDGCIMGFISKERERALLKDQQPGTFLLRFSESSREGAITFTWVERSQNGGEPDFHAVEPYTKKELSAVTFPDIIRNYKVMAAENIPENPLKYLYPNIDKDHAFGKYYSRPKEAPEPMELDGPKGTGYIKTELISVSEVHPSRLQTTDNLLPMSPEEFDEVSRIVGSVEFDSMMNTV

B1: GB1-018 (natural protein)
chain: MSSKGGSSGGMWSVFIHGHDGSNKGSKTYTSGGGGMWGGGSSSGVKSGVNGGVKSGTGKI

What was measured:
[1] = target: T1, U-STAT1 (purified full-length …); experiment: ITC; settings: both partners purified
[2] = target: T1, U-STAT1 (purified full-length …); experiment: fluorescence polarisation; settings: both partners purified

Binder | Kd [1] [nM] | IC50 [2] [nM] | stoichiometry N [1]
MWSVFIHGHDGSNKGSK (domain or fragment) [GB1-018^T3] | > 10000 | 17800 | –
YDKPH (also called pYDKPH; pIFNGR 5-mer) [pIFNGR1 5-mer peptide] | 7600 | – | –
MWSVFIHGHDGSNKGSKTYTS (domain or fragment) [GB1-018^T2] | 235 | 930 | –
B1 | 291 | 1260 | 1.02
